B1: FtsZCTD peptide (peptide)
peptide: DDLDVPSFLQ
notes: C-terminal 10 residues of FtsZ, Corynebacterium glutamicum; also called 10-residue peptide FtsZCTD; C-terminal domain of FtsZ; source: synthetic peptide, bought: Genosphere
B2: Glp (gephyrin-like protein, Cgl0883), untagged (natural protein, Corynebacterium glutamicum ATCC13032, UniProt Q8NS03 1-419, looked up)
chain: MRSVEQQLSIVTEAAVAPEPVRIAIAEALGLMCAEEVQASRALPGFAQAAIDGYAVRAVDVGGEKSLSQQLPVAPPEKSLPVVGEVAAGSQQPLRLQPKQAVMVHTGAPLPMLADAVLPMAWSDRGRKRVTAQRPVRSGEFVRKEGDDIQPGDIAVSAGAVLGPAQIGLLAAVGRSKVLVYPRPRMSVISVGAELVDIDRQPGLGQVYDVNSYSLAAAGREAGADVYRYGIAAGEPRRIKEIIESQMLRSEIIVITGAVGGAGSAGVRQVLNELGDIDTERVAMHPGSVQGFGLLGENKIPCFLLPSNPVASLVIFETFVRPVVRMSLGKSNAARRVVRARALNHVVSVAGRKGFIRSRLMRDAETQDYLVEALGGATGAPSHLLAGLSEANGMIRIPEDVTEIRPGDVVDVIFLAQGR
notes: Glp (gephyrin-like protein, annotated molybdopterin molybdotransferase MoeA), Corynebacterium glutamicum ATCC13032, locus Cgl0883; Homodimer in the crystal structures; Called 'untagged Glp' in the BLI on GlpR; also called gephyrin-like repurposed molybdotransferase; MoeA paralogue; source: E. coli BL21 (DE3), purified (Ni-NTA, SUMO protease, SEC); not shown: His6, N-terminal, cleaved; SUMO, …
B3: GlpR (Glp receptor, Cgl0885), C-terminal His tag (receptor, Corynebacterium glutamicum ATCC13032, UniProt Q8NS01 1-340, looked up)
chain: MLHVSGILVIGLIVVVWLVVLAPLLLRGQKPIAKAGEAFDDTRVISEGGSNIPSPRRPGLSSAQLDDEEDTDDVDDDYEIVDSPSIFRPRKEEPVEEDLDTDVELEEDIEVSLETDDYVEPAPVVEVSQEWNVEDHYELDDSYDTPLDHLHPAARARAYEDFQEHQPEQQPEVEEFDADDELTEEDVAFAQRRRGRGYYDPEADREFAASQYVRRQRTLLGLAATVVISVILGFVFGGWVWGLPAVALAATALYLMALRSQVREENALRARRIRRLRRSRMGVRNSEDLPSRLRRPGAVVLELDDESPDFEGLPTVAMPEEPYYEEPRRNIRHLGQRRVS
notes: GlpR, integral membrane protein with 3 predicted transmembrane helices, Corynebacterium glutamicum ATCC13032, locus Cgl0885; In 0.05% DDM; also called C-terminal His-tagged GlpR; immobilized GlpR; source: E. coli BL21 (DE3), purified from membranes in DDM (Ni-NTA, SEC); not shown: His6, C-terminal, kept

Experiments:
[1] = target: Biotinylated His-GlpR (Corynebacterium glutamicum ATCC13032); assay: BLI; biotinylated GlpR immobilised on streptavidin biosensors; Wag31 150–2.34 μM in buffer A (20 mM HEPES pH 8.5, 150 mM NaCl, DDM 0.05%); 25 °C; apparent Kd from steady-state fit, one-site model
[2] = target: Biotinylated His-GlpR (Corynebacterium glutamicum ATCC13032); assay: BLI; biotinylated GlpR immobilised on streptavidin biosensors; Wag31 1-61 (DivIVA) 200–3.15 μM in buffer B (25 mM HEPES pH 7.5, 150 mM NaCl, 10% glycerol, 0.05% DDM, 1 mg/ml BSA); 25 °C; apparent Kd from steady-state fit, one-site model
[3] = target: B2; assay: differential scanning fluorescence (thermofluor); Glp 3 μg in 25 mM HEPES pH 8, 150 mM NaCl, 5% glycerol with or without 1 mM FtsZCTD; Sypro Orange; 25 to 95 °C; details: both partners purified
[4] = target: T1, His-SUMO-FtsZ (Corynebacterium glutamicum, UniProt P94337 1-442); assay: BLI; His-SUMO-FtsZ immobilised on Ni-NTA biosensors; Glp 80–1.25 μM in 2-fold dilutions; polymerization buffer (25 mM Pipes pH 6.9, 100 mM KCl, 10 mM MgCl2); 25 °C; apparent Kd from steady-state fit, one-site model; details: both partners purified
T1 construct: FtsZ, tubulin-like cell division protein, Corynebacterium glutamicum; Captured on Ni-NTA biosensors; also called 6xHis-SUMO-FtsZ; immobilized SUMO-FtsZ; source: E. coli BL21 (DE3), purified (Ni-NTA, SEC); not shown: His6, N-terminal, kept; SUMO, N-terminal, kept
T1 sequence (looked up): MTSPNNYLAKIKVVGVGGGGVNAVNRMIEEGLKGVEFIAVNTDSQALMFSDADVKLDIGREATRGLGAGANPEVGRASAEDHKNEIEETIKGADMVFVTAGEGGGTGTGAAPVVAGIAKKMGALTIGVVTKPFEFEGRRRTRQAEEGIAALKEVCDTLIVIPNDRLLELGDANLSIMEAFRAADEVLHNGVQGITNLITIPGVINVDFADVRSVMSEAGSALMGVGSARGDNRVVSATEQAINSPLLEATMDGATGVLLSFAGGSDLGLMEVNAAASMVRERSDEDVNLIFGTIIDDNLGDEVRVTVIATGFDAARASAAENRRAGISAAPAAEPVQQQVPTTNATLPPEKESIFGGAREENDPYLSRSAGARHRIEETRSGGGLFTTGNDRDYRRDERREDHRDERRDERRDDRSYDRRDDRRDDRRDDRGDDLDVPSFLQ

[5] = target: the molecule itself; assay: crystal structure; 0.34 mM Glp with 1.7 mM FtsZCTD peptide; 0.1 M NaCl, 0.1 M Bis-Tris pH 6.5, 1.5 M (NH4)2SO4; 2.7 Å
[6] = target: B2; assay: BLI; C-terminal His-tagged GlpR immobilised on Ni-NTA biosensors; untagged Glp variants (Glp 100–1.56 nM) in 25 mM HEPES pH 7.5, 150 mM NaCl, 10% glycerol, 0.05% DDM, 1 mg/ml BSA; 25 °C; apparent Kd from steady-state fit; details: both partners purified

In the case of Wag31, full length (natural protein), the Kd [1] is reported as 43.4 µM.

Molecule “Wag31_(1–61) (N-terminal DivIVA domain of Wag31) (domain or fragment)” has a Kd [2] of 14.9 µM.

For B1, the “Tm shift of Glp” value [3] was 2 °C.

B2 was tested, and the Kd [4] was 4.7 ± 0.77 µM and the “stoichiometry N” value [5] was 2.

Work on B3 yielded a Kd [6] of 5.5 ± 0.75 nM.
